One assay has as its target T1, hiR2-FL-T436V-T7 (human, UniProt Q6PJF5 1-856).
T1 sequence: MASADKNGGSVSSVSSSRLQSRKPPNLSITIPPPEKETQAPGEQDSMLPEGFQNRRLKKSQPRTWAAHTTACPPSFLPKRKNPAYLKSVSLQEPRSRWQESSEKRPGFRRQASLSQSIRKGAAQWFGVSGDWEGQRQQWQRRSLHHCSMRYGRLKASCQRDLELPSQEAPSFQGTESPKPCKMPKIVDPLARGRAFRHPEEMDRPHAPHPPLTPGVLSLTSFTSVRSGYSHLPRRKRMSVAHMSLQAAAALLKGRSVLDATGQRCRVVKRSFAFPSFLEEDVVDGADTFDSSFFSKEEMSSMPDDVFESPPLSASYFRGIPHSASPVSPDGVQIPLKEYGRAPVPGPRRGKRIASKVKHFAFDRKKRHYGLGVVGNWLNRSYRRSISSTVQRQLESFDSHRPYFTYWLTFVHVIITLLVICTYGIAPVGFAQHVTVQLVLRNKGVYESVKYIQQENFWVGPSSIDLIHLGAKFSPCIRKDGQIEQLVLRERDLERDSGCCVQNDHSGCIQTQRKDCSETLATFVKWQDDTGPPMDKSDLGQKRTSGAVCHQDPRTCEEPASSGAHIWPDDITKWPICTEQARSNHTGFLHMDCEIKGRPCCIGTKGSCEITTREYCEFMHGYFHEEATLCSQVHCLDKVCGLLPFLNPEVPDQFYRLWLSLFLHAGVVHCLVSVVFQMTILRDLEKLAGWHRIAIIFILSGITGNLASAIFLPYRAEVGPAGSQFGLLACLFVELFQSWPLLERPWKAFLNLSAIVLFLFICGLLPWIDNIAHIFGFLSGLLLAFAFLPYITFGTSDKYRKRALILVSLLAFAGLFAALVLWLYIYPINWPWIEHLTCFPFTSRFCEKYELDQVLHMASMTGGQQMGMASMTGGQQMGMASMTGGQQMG
Description: FACS, MEF-DKO cells, 3 µg/ml. The text has this: (§1) In brief, immortalized MEF-DKO-hiR2-FL-A431S-T7, MEF-DKO-hiR2-FL-V434E-T7, MEF-DKO-hiR2-FL-T436V-T7, MEF-DKO-hiR2-FL-Q437D-T7, MEF-DKO-hiR2-FL-L438S-T7, MEF-DKO-hiR2-FL-S448N-T7, MEF-DKO-hiR2-FL-I452V-T7, MEF-DKO-hiR2-FL-I464E-T7, MEF-DKO-hiR2-FL-D465A-T7, MEF-DKO-hiR2-FL-I477M-T7, MEF-DKO-hiR2-FL-K479Q-T7, MEF-DKO-hiR2-FL-G481P-T7, MEF-DKO-hiR2-FL-I483V-T7, MEF-DKO-hiR2-FL-E484H-T7, MEF-DKO-hiR2-FL-Q485S-T7, MEF-DKO-hiR2-FL-L486F-T7, MEF-DKO-hiR2-FL-V487I-T7, MEF-DKO-hiR2-FL-R489S-T7, MEF-DKO-hiR2-FL-E490A-T7, MEF-DKO-hiR2-FL-D492E-T7, MEF-DKO-hiR2-FL-L493R-T7, MEF-DKO-hiR2-FL-R495K-T7 and MEF-DKO-hiR2-FL-D496H-T7 cells were harvested with 10 mM EDTA in PBS, washed and resuspended in FACS buffer (PBS, 3% FBS, 0.05% sodium azide), and seeded in Nunc U-bottom 96-well plates (Thermo Fisher Scientific, USA) at approximately 1×10⁵ cells per well. To pellet cells and remove supernatants, the plates were centrifuged at 1,500 rpm and 4° C. for 3 minutes. For primary staining, cells were resuspended in 100 μl per well of either FACS buffer alone (controls) or the purified antibodies 3, 5, 16, 22, 34, 42, 43, 44, 48, and 50 of the invention at 3 μg/ml in FACS buffer and incubated on ice for 1 hour. Afterwards, plates were centrifuged at 1,500 rpm and 4° C. for 3 minutes and washed twice with 200 μl per well of FACS buffer. For secondary staining, cells were spun down and resuspended in 100 μl per well of PE-conjugated goat anti-mouse IgG F(ab′)2 detection fragment (Dianova, Germany) diluted 1:100 in FACS buffer. Protected from light, the cell suspensions were incubated on ice for 1 hour. Plates were then centrifuged at 1,500 rpm and 4° C. for 3 minutes and washed three times with 200 μl per well of FACS buffer. Finally, cells were resuspended in 150 μl per well of FACS buffer and analyzed using a BD Accuri™ C6 Plus flow cytometer (Becton Dickinson, Germany).
On the technique in general: Flow cytometry measures light scatter and fluorescence of single cells or particles in a stream.

The next assay addresses T2, hiR2-FL-Q437D-T7 (human, UniProt Q6PJF5 1-856).
T2 sequence: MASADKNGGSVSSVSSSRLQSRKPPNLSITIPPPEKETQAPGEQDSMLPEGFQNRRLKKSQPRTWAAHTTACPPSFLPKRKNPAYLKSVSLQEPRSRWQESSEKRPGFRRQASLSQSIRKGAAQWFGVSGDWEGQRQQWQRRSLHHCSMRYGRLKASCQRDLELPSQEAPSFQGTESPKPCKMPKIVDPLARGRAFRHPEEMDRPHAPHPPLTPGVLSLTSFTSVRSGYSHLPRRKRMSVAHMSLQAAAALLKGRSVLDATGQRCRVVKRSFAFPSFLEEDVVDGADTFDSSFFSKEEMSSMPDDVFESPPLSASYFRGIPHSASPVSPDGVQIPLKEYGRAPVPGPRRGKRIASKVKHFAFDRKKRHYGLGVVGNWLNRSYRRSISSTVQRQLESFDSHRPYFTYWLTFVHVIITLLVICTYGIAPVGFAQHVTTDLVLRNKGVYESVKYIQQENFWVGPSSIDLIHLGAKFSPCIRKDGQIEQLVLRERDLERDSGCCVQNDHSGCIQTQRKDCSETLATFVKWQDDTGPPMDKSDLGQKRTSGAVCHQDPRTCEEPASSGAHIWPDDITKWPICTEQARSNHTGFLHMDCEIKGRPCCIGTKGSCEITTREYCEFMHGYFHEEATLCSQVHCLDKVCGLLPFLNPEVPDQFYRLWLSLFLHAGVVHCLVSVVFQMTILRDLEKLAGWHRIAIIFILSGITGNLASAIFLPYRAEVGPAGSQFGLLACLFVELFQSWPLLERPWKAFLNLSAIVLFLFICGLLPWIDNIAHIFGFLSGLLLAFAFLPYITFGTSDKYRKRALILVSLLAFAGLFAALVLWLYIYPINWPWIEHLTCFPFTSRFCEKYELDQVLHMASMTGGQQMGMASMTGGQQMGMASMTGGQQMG
Description: FACS, MEF-DKO cells, 3 µg/ml.
Source text: as §1

B1: antibody 48 (antibody, V domains shown)
VH: QVQLQQSGTELVRPGTSVKVSCKASGYAFTNYLIEWVKQRPGQGLEWIGVINPGSGFTKYNEKFKGKATLTADKSSSTVYMHLSSLTSEDSAVYFCARGLYRAMDYWGQGTSVTVSS
VL: DIQMTQSPASQSASLGESVTITCLASQTIATWLAWYQQKPGKSPQLLIYGATTLADGVPSRFSGGGSGTKFSFKISSLQAEDFVSYYCQQLYSTPYTFGGGTKLEIK
notes: mouse IgG, kappa light chain; also called clone #48; purified antibody 48
On to B1, for which the “loss of binding vs wild type” value with hiR2-FL-T436V-T7 and with hiR2-FL-Q437D-T7 was at least 30% each time.

B2: antibody 50 (antibody, V domains shown)
VH: QVQLQQSGAELVRPGASVKVSCKASGYAFSNYLIEWVKQRPGQGLEWIGVINPGSGFTKYNEKFKGKATLTADKSSSTAYMQLSSLTSEDSAVYFCARGLYRAMDYWGQGTSVTVSS
VL: DIQMTQSPASQSASLGESVTITCLASQTIGTWLAWYQQKPGKSPQLLIYAAASLADGVPSRFSGGGSGTKFSFKISSLQAEDFVNYYCQQIYSTPYTFGGGTKLEIK
notes: mouse IgG, kappa light chain; also called clone #50; purified antibody 50
Take B2: the “loss of binding vs wild type” value with hiR2-FL-T436V-T7 and with hiR2-FL-Q437D-T7 was at least 30% in each case.

Values taken from patent US20240287172A1 (SCIRHOM, published 2024).
